Publication PMC11357852 (Molecular Therapy. Methods & Clinical Development, 2024)

Target: T1, recombinant mouse HEXB (beta-subunit of beta-hexosaminidase) (mouse, UniProt P20060 32-536)
T1 sequence (looked up): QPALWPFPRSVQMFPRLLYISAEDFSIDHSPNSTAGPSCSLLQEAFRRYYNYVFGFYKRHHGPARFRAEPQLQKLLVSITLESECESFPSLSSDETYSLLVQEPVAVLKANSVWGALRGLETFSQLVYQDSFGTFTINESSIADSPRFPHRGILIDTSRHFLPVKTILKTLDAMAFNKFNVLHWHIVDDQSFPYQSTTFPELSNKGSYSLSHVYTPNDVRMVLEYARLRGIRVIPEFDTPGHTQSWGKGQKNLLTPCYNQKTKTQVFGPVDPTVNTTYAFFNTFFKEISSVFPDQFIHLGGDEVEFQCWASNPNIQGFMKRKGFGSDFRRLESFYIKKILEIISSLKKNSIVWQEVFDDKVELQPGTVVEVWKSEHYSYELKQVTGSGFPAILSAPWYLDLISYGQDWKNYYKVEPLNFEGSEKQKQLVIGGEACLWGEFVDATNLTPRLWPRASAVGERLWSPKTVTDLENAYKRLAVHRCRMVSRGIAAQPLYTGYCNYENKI
Assay: binding to a coated plate, bound protein read by HexA enzymatic activity

- Kd: 166 nM
B1: mouse-Transferrin-G-CSF-HEXA (mTr-G-CSF-HEXA) (other)
chain: HAIYPRHGSVPLVTVSALPPSLPLPRSFLLKSLEQVRKIQASGSVLLEQLCATYKLCHPEELVLLGHSLGIPKASLSGCSSQALQQTQCLSQLHSGLCLYQGLLQALSGISPALAPTLDLLQLDVANFATTIWQQMENLGVAPTVQPTQSAMPAFTSAFQRRAGGVLAISYLQGFLETARLALHHLAGSGSDRVYIHPFHLGSGSGGSGGSGGSGSGGSGSGGSGGSGLWPWPQYIQTYHRRYTLYPNNFQFRYHVSSAAQAGCVVLDEAFRRYRNLLFGSGSWPRPSFSNKQQTLGKNILVVSVVTAECNEFPNLESVENYTLTINDDQCLLASETVWGALRGLETFSQLVWKSAEGTFFINKTKIKDFPRFPHRGVLLDTSRHYLPLSSILDTLDVMAYNKFNVFHWHLVDDSSFPYESFTFPELTRKGSFNPVTHIYTAQDVKEVIEYARLRGIRVLAEFDTPGHTLSWGPGAPGLLTPCYSGSHLSGTFGPVNPSLNSTYDFMSTLFLEISSVFPDFYLHLGGDEVDFTCWKSNPNIQAFMKKKGFTDFKQLESFYIQTLLDIVSDYDKGYVVWQEVFDNKVKVRPDTIIQVWREEMPVEYMLEMQDITRAGFRALLSAPWYLNRVKYGPDWKDMYKVEPLAFHGTPEQKALVIGGEACMWGEYVDSTNLVPRLWPRAGAVAERLWSSNLTTNIDFAFKRLSHFRCELVRRGIQAQPISVGYCEQEFEQT
